Biological target: T1, His-tagged human calmodulin (recombinant) (human, UniProt P0DP24 1-149)
T1 construct: human calmodulin, CALM2 cDNA (OriGene SC125707) in a modified pET16b with a TEV site between the N-terminal polyhistidine tag and the protein; also called free calmodulin; recombinant calmodulin; not shown: polyhistidine, N-terminal, kept
Assay: ELISA; competition: calmodulin immobilised, GST-DED1 held at its KD concentration, R4 peptide titrated; anti-GST AlexaFluor 488 detection
Settings: both partners purified

B1: DED1 R4 peptide (peptide)
peptide: VRRFDLLKRILK
notes: cFLIP DED1 region 4, V62-K73, twelve amino acids; also called region 4; source: synthetic peptide (Tufts University Core Facility)
IC50: 63 µM
